From patent US20190092852A1
Read-outs that look alike come from different tables or passages of the source.

T1: human IL-33 (R&D Systems, #3625-IL-010/CF) (human) (UniProt O95760)
T1 sequence (looked up): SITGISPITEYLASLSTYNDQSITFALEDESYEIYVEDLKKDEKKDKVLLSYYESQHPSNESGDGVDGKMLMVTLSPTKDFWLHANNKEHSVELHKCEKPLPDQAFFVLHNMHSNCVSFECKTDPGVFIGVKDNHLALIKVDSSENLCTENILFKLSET

T2: biotinylated human IL-33 (human) (UniProt O95760)
T2 sequence (biotin-labeled with EZ-LINK NHS-PEG4-Biotin, looked up): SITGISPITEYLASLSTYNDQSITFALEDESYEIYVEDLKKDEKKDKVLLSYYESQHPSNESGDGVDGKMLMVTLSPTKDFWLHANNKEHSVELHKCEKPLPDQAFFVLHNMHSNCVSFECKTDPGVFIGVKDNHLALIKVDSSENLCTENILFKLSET


Assays:
[1] = target: human ST2L on HEK-BLUE IL-33/IL-1beta cells (human) (UniProt Q01638)
[2] = target: human ST2L on HEK-BLUE IL-33/IL-1beta cells (human) (UniProt Q01638); remark: listed apart in the source
[3] = target: T1, human IL-33 (R&D Systems, #3625-IL-010/CF) (human); assay: SPR Biacore T200, 25 C
[4] = target: T1, human IL-33 (R&D Systems, #3625-IL-010/CF) (human)
[5] = target: T1, human IL-33 (R&D Systems, #3625-IL-010/CF) (human); remark: listed apart in the source
[6] = target: T1, human IL-33 (R&D Systems, #3625-IL-010/CF) (human); remark: listed apart in the source
[7] = target: T1, human IL-33 (R&D Systems, #3625-IL-010/CF) (human); remark: listed apart in the source
[8] = target: T1, human IL-33 (R&D Systems, #3625-IL-010/CF) (human); assay: SPR Biacore T200, 37 C
[9] = target: T2, biotinylated human IL-33 (human); assay: competitive ELISA, biotin-huIL-33 to coated hST2-Fc
[10] = target: T1, human IL-33 (R&D Systems, #3625-IL-010/CF) (human); remark: listed apart in the source
[11] = target: T1, human IL-33 (R&D Systems, #3625-IL-010/CF) (human); remark: listed apart in the source
[12] = target: T1, human IL-33 (R&D Systems, #3625-IL-010/CF) (human); remark: listed apart in the source
[13] = target: T1, human IL-33 (R&D Systems, #3625-IL-010/CF) (human); remark: listed apart in the source

Chain of human ST2L on HEK-BLUE IL-33/IL-1beta cells (human) (Q01638 19-556 limits assumed): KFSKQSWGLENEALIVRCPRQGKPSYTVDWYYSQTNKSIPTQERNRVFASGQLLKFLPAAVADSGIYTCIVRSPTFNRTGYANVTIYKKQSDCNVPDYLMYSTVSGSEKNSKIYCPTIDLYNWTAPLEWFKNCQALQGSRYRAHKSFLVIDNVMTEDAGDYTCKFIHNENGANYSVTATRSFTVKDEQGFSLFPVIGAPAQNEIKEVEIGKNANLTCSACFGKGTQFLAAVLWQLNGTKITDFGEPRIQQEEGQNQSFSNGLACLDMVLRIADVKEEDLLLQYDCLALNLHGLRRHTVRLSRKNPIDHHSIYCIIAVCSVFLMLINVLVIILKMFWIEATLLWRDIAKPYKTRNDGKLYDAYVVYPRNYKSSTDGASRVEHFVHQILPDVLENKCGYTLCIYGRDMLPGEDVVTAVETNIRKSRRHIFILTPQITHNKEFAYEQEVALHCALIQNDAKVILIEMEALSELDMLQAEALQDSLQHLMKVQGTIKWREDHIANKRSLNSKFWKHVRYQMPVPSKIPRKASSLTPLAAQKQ

Binder	EC50 (SEAP reporter OD 620, HEK-BLUE IL-33/IL-1beta cells) [1] [nM]	EC50 (SEAP reporter OD 620, HEK-BLUE IL-33/IL-1beta cells) [2] [nM]	Kd [3] [nM]	koff [3] [s⁻¹]	kon [3] [M⁻¹ s⁻¹]	t1/2 [3] [min]	IC50; SEAP reporter (OD 620), HEK-BLUE IL-33/IL-1beta cells, 10 pM hIL-33 [4] [M]	Ph-p38 MFI at 2 nM Ab (500 pM human IL-33, primary basophils) [5] [MFI]	IC50 (read off the curve) [6] [nM]	IC50, IL-33-induced phospho-p38 in primary human basophils, 500 pM hIL-33 [7] [M]	Kd [8] [nM]	koff [8] [s⁻¹]	kon [8] [M⁻¹ s⁻¹]	t1/2 [8] [min]	IC50 [9] [nM]	Maximum Blocking [9] [%]	IC50; IFN-gamma ELISA, primary human NK cells, 260 pM hIL-33 + IL-12 [10] [M]	Ph-p38 MFI at 0.4 nM Ab (500 pM human IL-33, primary basophils) [11] [MFI]	IC50 (read off the curve) [12] [nM]	IC50 (read off the curve) [13] [nM]
H4H9660P (antibody, from another filing, IgG4, V domains shown) VH: EVQLVESGGGLVQPGGSLRLSCAASGITLSSYGMSWVRQAPGKGLEWVASIFGSGGGPYYADSVKGRFTMSRDNSKNTLYLQMNSLRAEDTAVYYCAKDRYSGSYYGGFDYWGRGTLVTVSS VL: DIQMTQSPSSVSASVGDRVTITCRASQGITSWLAWYQQKPGKAPTLLIYAASSLQTGVPSRFSGSGSGTDFTLTISSLQPEHFATYYCQQANSFPPTFGGGTKVEIK	–	–	0.67	0.00039	581000	30	3.8e-11	29	0.0005	4.8e-13	0.302	0.000413	1.37e+06	28	0.092	78	2.4e-10	105	–	–
H4H9667P (antibody, from another filing, IgG4, V domains shown) VH: EVQLVESGGGLVQPGGSLRLSCAASGFTFSTYSMHWVRQAPGKGLEYVSTINNNGDTTYYADSVKGRFTISRDNSKNTLYLQLGSLRPEDMAVYYCARQTYTSSWYGGFDSWGQGTLVTVSS VL: DIQMTQSPSSVSASVGDRVTITCRASQGITSWLAWYQQKPGKAPKLLIYAASNLQSGVPSRFSGSGSGTDFTLTITSLQPEDFATYYCQQANSLPFTFGPGTKVDIK	–	–	0.525	0.000328	626000	35	1e-09	68	–	2e-12	0.411	0.000497	1.21e+06	23	0.41	77	–	111	0.002	–

Now from value to binder:

EC50 (SEAP reporter OD 620, HEK-BLUE IL-33/IL-1beta cells) [1] [nM]	EC50 (SEAP reporter OD 620, HEK-BLUE IL-33/IL-1beta cells) [2] [nM]	Kd [3] [nM]	koff [3] [s⁻¹]	kon [3] [M⁻¹ s⁻¹]	t1/2 [3] [min]	IC50; SEAP reporter (OD 620), HEK-BLUE IL-33/IL-1beta cells, 10 pM hIL-33 [4] [M]	Ph-p38 MFI at 2 nM Ab (500 pM human IL-33, primary basophils) [5] [MFI]	IC50 (read off the curve) [6] [nM]	IC50, IL-33-induced phospho-p38 in primary human basophils, 500 pM hIL-33 [7] [M]	Kd [8] [nM]	koff [8] [s⁻¹]	kon [8] [M⁻¹ s⁻¹]	t1/2 [8] [min]	IC50 [9] [nM]	Maximum Blocking [9] [%]	IC50; IFN-gamma ELISA, primary human NK cells, 260 pM hIL-33 + IL-12 [10] [M]	Ph-p38 MFI at 0.4 nM Ab (500 pM human IL-33, primary basophils) [11] [MFI]	IC50 (read off the curve) [12] [nM]	IC50 (read off the curve) [13] [nM]	Binder
0.021	0.0087	–	–	–	–	–	–	–	–	–	–	–	–	–	–	–	–	–	–	cynomolgus monkey N-terminal 6-His-tagged and C-terminal Avi-tagged IL-33 (S112-T270) (ligand) MHHHHHHGENLYFQGSITGISPITESLASLSTYNDQSITFALEDESYEIYVEDLKKDKKKDKVLLSYYESQHPSSESGDGVDGKMLMVTLSPTKDFWLQANNKEHSVELHKCEKPLPDQAFFVLHNRSFNCVSFECKTDPGVFIGVKDNHLALIKVDYSENLGSENILFKLSETGNSGGGLNDIFEAQKIEWHE
–	–	0.56	0.001	1.79e+06	12	8.2e-10	61	–	9.1e-13	0.457	0.00158	3.47e+06	7	0.97	73	1.2e-09	132	–	0.0009	H4H9676P (antibody, from another filing, IgG4, V domains shown) VH: EVQLVESGGGLVQPGGSLRLSCSASGFTFSSYAMNWVRQAPGKGLEWVTAISGSGGGTYYADSVKGRFTISRDNSKNSLFLQLNSLRAEDTAVYYCAKQTYTSSWYGGFDIWGQGTMVTVSS VL: DIQMTQSPSSVSASVGDRVTITCRASQGFSSWLAWYQQIPGKAPKLLIYAASRLQSGVPSRFRGSGSGTDFTLTISSLQPEDFATYYCQQANSFPLTFGGGTKVEIK
